Changes are numbered by the printed parent chain. Numbers in names are those of the source.
T1: human LAG-3-6*His tag recombinant fusion protein (human, UniProt P18627 23-450, biotin-labelled in panning and in Example 9)
T1 construct: Bought protein; also called hLAG-3-6*his tag recombinant protein; human LAG-3-his tag recombinant fusion protein
T1 sequence: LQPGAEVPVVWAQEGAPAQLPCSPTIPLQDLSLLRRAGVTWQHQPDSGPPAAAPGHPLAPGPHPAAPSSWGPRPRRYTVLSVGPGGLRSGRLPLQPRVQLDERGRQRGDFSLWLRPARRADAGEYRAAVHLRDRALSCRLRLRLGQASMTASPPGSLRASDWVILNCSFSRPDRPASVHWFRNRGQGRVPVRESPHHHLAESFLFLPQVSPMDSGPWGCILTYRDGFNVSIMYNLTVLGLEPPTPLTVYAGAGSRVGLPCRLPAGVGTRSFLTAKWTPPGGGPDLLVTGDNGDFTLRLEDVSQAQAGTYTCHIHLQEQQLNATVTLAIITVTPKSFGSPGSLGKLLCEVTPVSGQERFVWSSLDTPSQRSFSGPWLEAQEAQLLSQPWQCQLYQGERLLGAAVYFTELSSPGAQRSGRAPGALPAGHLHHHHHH

T2: human LAG-3 on the cell surface (human, UniProt P18627 23-525)
T2 construct: whole, on cells; also called cells expressing the human LAG-3
T2 sequence (looked up): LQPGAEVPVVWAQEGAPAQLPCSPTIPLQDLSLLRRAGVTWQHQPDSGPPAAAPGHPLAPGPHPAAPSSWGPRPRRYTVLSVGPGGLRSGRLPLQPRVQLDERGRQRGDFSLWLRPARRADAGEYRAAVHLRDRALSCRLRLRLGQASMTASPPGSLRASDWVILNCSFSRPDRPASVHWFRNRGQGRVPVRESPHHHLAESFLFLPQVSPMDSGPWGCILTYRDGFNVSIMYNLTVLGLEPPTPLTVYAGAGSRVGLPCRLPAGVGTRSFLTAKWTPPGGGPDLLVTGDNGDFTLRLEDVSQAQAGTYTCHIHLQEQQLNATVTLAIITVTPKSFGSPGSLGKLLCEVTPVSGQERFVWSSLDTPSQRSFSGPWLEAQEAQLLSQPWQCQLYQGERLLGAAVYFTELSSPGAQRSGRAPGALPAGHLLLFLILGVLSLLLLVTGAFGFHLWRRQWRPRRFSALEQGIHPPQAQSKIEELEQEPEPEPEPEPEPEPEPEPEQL

B1: MV705-3-VH-ED + DD-IgG4 (antibody, V domains shown)
VH: EVQLLESGAEVKKPGASVKVSCKASGYTFTSYGISWVRQAPGQGLEWMGWISAYNGNTNYAQKLQGRVTMTTDTSTSTAYMELRSLRSEDTAVYYCARDGWWELLRPDDAFDIWGQGTTVTVSS
VL: QLVLTQSPSVSVSPGQTASITCSGDKLGDKYAYWYQQKPGQAPVLVIYYDSDRPSGIPERFSGSNSGNTATLTISRVEAGDEADYYCQVWDSSSDQVVFGGGTQLTVLG
notes: human IgG4 S228P constant region, MV705-3 lambda light chain; also called 13381; 13381 (ED + DD)
B2: MV705-3-VH-DE + DD-IgG4 (antibody, V domains shown)
VH: B1 VH with E89D, D90E
VL: B1 VL
notes: human IgG4 S228P constant region, MV705-3 lambda light chain; also called 13380; 13380 (DE + DD)
B3: MV705-3-VH-DE + DE-IgG4 (antibody, V domains shown)
VH: B1 VH with E89D, D90E, D109E
VL: B1 VL
notes: human IgG4 S228P constant region, MV705-3 lambda light chain; also called 13565; 13565 (DE + DE)
B4: MV705-3-VH-ED + ED-IgG4 (antibody, V domains shown)
VH: B1 VH with D108E
VL: B1 VL
notes: human IgG4 S228P constant region, MV705-3 lambda light chain; also called 13616; 13616 (ED + ED)
B5: MV705-3-VH-DD + ED-IgG4 (antibody, V domains shown)
VH: B1 VH with E89D, D108E
VL: B1 VL
notes: human IgG4 S228P constant region, MV705-3 lambda light chain; also called 13386; 13386 (DD + ED)
B6: MV705-3-VH-DE + ED-IgG4 (antibody, V domains shown)
VH: B1 VH with E89D, D90E, D108E
VL: B1 VL
notes: human IgG4 S228P constant region, MV705-3 lambda light chain; also called 13563; 13563 (DE + ED)
B7: MV705-3-VH-DD + DE-IgG4 (antibody, V domains shown)
VH: B1 VH with E89D, D109E
VL: B1 VL
notes: human IgG4 S228P constant region, MV705-3 lambda light chain; also called 13365; 13365 (DD + DE)
B8: MV705-3-VH-ED + DE-IgG4 (antibody, V domains shown)
VH: B1 VH with D109E
VL: B1 VL
notes: human IgG4 S228P constant region, MV705-3 lambda light chain; also called 13564; 13564 (ED + DE)

What follows are binders tested against T1, human LAG-3-6*His tag recombinant … (assay: ELISA as in Example 4 (antibody coated, human LAG-3-6*His titrated); N = 3).

EC50 [µg/mL] | Binder
0.044 | B1
0.044 | B2

What follows are binders tested against T2, human LAG-3 on the cell surface (assay: flow cytometry on cells expressing the human LAG-3, PE anti-human IgG; N = 2).

EC50 [µg/mL] | Binder
> 0.01 | B3
0.0051 | B4

What follows are binders tested against T1, human LAG-3-6*His tag recombinant … (assay: ELISA as in Example 4 (antibody coated, human LAG-3-6*His titrated); N = 2).

EC50 [µg/mL] | Binder
0.21 | B4

What follows are binders tested against T2, human LAG-3 on the cell surface (assay: cell-based or functional assay).

EC50, ability to activate T cells in vitro (LAG3/NFAT Reporter-Jurkat) [µg/mL] | Binder
0.1 | B1
> 30 | B4
> 30 | B5
0.05 | B2
> 30 | B6

What follows are binders tested against T1, human LAG-3-6*His tag recombinant … (assay: ELISA as in Example 4 (antibody coated, human LAG-3-6*His titrated)).

EC50 [µg/mL] | Binder
1.29 | B7
3.13 | B3
0.15 | B5
2.43 | B8
0.21 | B6

These binders were tested against T2, human LAG-3 on the cell surface (assay: flow cytometry on cells expressing the human LAG-3, PE anti-human IgG; N = 4).

EC50 [µg/mL] | Binder
0.0022 | B1
0.0059 | B5
0.0018 | B2
0.0047 | B6

Each binder was assayed against T2, human LAG-3 on the cell surface (assay: flow cytometry on cells expressing the human LAG-3, PE anti-human IgG; N = 1).

EC50 [µg/mL] | Binder
> 10 | B7
> 0.01 | B8
